Measurements from paper PMC8130932 (2021).

Tests used:
[1] = biological target: RBD-6H (340-538; NITN.GPKK), biotinylated (SARS-CoV-2)
[2] = biological target: RBD-VLP (Spycatcher-mi3 VLP-particles conjugated with Spytagged-RBD recombinant protein) (SARS-CoV-2); assay: ELISA

Binder | IC50 [1] [nM] | IC50 [2] [nM]
FD 11A (antibody, V domains shown) VH: EVQLVESGGGVVQPGRSLRLSCAASGFTFSSYGMHWVRQAPGKGLEWVAVIWYDGSNKYYADSVKGRFTISRDNSKNTLYLQMNSLRAEDTAVYYCAKGPDILTGYYNYYYYGMDVWGQGTMVTVSS VL: QSVLTQPPSVSGAPGQRVTISCTGSSSNIGAGYDVHWYQQLPGTAPKLLIYGNSNRPSGVPDRFSGSKSGTSASLAITGLQAEDEADYYCQSYDSSLSGFYVVFGGGTKLTVL | 164 | –
EY 6A (antibody, V domains shown) VH: EVQLVESGGGVVQPGRSLRLSCAASAFTFSSYDMHWVRQAPGKGLEWVAVISYDGSNKYYADSVKGRFTISRDNSKNTLYLQMNSLRAEDTAVYYCAKDGGKLWVYYFDYWGQGTLVTVSS VL: not shown | 189 | –
FI 1C (antibody, V domains shown) VH: EVQLVESGGGLVKPGGSLRLSCAASGFTFSDYYMSWIRQAPGKGLEWVSYISSSGSTIYYADSVKGRFTISRDNAKNSLYLQMNSLRAEDTAVYYCARRSNRFLIAFDIWGQGTMVTVSS VL: QSALTQPASVSGSPGQTITISCTGTSSDVGGYNYVSWYQQHPGKAPKLMIYEVSNRPSGVSNRFSGSKSGNTASLTISGLQAEDEADYYCSSYTSSSTLVVFGGGTKLTVP | 109 | 3
FD 5D (antibody, V domains shown) VH: EVQLVESGGGLVQPGGSLRLSCAASGFTFSSYSMNWVRQAPGKGLEWVSYISSSSSTIYYADPVKGRFTISRDNAKNSLYLQMNSLRAEDTAVYYCASPGGITAAGTSVLFGYYGMDVWGQGTMVTVSS VL: not shown | 34 | –
FI 3A (antibody, V domains shown) VH: EVQLLESGGGLIQPGGSLRLSCAASGFTVSSNYMSWVRQAPGKGLEWVSVIYSGGSTYYADSVKGRFTISRDNSKNTLYLQMNSLRAEDTAVYYCARDHVRPGMNIWGQGTMVTVSS VL: not shown | 8 | 3
